Laboratory results published in US20260250404A1.

Molecular target: human FcγRIa on the cell surface (transfected CHO-S cells, M0/M1 macrophages, hMDM, FcγRI effector reporter cells) (human) (UniProt P12314)
Experiment: flow cytometry on CHO-S cells transiently expressing human FcγRIa, PE goat anti-human IgG F(ab')2, % PE+ cells

Chain of human FcγRIa on the cell surface (transfected CHO-S cells, M0/M1 macrophages, hMDM, FcγRI effector reporter cells) (human) (P12314 16-374): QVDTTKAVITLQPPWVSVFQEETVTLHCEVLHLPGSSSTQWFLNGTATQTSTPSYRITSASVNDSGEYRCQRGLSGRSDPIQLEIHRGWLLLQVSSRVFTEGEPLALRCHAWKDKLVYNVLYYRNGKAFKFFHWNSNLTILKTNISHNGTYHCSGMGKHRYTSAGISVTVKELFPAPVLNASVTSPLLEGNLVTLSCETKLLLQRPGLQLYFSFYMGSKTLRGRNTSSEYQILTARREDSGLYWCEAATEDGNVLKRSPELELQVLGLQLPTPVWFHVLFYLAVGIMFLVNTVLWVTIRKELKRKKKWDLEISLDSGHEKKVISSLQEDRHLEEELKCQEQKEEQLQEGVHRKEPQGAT

- EC50 (read off the curve): 0.3 µg/mL
Substance: cemiplimab (antibody)
